Source: IntAct's records for PubMed 20453063

Molecular target: chd8_human CHD8 (UniProt Q9HCK8)
Sequence of UniProt Q9HCK8 (Q9HCK8 whole entry): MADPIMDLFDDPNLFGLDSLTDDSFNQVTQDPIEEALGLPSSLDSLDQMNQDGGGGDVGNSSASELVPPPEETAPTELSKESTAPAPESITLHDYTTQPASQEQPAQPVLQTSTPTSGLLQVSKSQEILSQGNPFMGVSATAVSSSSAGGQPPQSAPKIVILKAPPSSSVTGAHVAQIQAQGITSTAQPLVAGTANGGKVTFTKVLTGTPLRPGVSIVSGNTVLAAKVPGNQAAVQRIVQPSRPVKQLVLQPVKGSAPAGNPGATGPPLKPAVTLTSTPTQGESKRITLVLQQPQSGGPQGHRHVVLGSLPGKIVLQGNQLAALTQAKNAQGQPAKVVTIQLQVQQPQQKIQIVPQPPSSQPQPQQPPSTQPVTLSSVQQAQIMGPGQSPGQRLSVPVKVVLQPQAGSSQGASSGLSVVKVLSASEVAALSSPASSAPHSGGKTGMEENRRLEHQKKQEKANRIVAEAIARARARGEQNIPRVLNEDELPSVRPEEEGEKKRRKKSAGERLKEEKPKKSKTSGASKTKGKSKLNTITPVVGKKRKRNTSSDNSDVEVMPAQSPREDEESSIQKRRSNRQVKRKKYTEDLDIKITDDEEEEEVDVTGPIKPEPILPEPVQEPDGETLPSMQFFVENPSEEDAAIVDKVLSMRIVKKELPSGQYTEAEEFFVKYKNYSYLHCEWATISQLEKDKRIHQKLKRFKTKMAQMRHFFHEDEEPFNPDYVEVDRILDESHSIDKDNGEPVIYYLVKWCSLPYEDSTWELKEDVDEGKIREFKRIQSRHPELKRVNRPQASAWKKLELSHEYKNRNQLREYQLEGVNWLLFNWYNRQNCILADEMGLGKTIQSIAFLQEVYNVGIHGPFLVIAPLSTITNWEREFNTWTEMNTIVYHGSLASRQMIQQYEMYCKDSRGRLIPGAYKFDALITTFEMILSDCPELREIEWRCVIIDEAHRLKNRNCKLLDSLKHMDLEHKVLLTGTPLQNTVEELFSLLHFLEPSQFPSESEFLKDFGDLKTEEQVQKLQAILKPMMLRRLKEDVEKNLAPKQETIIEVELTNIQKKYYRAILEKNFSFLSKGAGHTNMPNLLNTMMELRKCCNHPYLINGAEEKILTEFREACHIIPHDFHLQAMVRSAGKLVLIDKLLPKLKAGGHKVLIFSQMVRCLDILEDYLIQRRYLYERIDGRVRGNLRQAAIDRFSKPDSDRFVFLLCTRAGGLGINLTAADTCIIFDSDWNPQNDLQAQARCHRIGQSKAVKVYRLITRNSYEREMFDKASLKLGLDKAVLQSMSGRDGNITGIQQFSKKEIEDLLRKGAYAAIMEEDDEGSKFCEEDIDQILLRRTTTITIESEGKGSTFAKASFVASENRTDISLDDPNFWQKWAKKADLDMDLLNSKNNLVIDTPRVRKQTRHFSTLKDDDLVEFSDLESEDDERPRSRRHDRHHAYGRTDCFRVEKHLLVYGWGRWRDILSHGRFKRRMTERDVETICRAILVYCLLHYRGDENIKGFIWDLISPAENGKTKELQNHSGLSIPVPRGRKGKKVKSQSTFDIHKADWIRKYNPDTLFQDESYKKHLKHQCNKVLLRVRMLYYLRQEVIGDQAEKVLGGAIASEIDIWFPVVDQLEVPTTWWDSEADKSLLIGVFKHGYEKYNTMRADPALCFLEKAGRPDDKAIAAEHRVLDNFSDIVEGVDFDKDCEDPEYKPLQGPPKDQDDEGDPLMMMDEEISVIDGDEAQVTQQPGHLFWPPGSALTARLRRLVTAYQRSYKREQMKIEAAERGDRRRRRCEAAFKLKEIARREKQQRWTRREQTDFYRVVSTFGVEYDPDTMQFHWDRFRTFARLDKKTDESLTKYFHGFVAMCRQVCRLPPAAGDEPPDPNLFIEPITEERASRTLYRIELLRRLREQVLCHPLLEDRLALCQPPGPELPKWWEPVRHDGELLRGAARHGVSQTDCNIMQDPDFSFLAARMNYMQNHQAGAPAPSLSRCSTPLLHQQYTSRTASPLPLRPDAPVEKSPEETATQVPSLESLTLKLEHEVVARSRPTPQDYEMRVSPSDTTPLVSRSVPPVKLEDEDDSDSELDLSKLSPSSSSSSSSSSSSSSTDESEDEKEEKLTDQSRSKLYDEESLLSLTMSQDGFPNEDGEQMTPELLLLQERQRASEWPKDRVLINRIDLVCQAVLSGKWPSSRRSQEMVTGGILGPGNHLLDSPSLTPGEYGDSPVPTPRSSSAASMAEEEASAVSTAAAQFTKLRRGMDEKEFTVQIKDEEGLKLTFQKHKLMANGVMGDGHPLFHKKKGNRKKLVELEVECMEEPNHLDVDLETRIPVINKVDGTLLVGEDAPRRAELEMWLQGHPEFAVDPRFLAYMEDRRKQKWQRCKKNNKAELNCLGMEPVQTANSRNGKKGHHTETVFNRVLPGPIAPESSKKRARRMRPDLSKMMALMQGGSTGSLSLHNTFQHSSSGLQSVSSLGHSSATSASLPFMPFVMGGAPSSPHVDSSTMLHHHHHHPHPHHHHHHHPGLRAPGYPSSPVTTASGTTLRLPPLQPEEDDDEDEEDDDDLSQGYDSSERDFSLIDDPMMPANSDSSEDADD

effect of a mutation on the interaction	Substance
disrupting interaction	Chromodomain-helicase-DNA-binding protein 7 (Homo sapiens), Q9P2D1 G2108R
disrupting interaction	Chromodomain-helicase-DNA-binding protein 7 (Homo sapiens), Q9P2D1 H2096R
disrupting interaction	Chromodomain-helicase-DNA-binding protein 7 (Homo sapiens), Q9P2D1 W2091R
